According to paper PMC2913146 (Molecular cell, 2010):

Target: the molecule itself
Assay: crystal structure

B1: PoxA (enzyme)
chain: MSETATWQPSASIPNLLKRAAIMAEIRRFFADRGVLEVETPCMSQATVTDIHLFPFETRFVGPGHSQGINLYLMTSPEYHMKRLLAAGCGPVFQLCRSFRNEEMGRHHNPEFTMLEWYRPHYDMYRLMNEVDDLLQQVLDCQPAESLSYQQAFQRHLEIDPLSADKTQLREAAAKLDLSNIADTEEDRDTLLQLLFTMGVEPHIGKEKPTFIYHFPASQASLAQISTEDHRVAERFEVYYKGIELANGFHELTDAREQQQRFEQDNRKRAARGLPQQPIDQNLLDALAAGLPDCSGVALGVDRLVMLALGAESLADVIAFTVDRA
- binding result: binds
